{"source": "patent US20240360216A1", "about": "(NOVOPROTEIN SCIENTIFIC, published 2024)", "key": {"[1]": {"biological_target": "T1, monkey CD3E protein (Examples 4.2 and 7) (monkey, UniProt Q95LI5 22-117)", "T1 construct": "extracellular domain", "T1 sequence (looked up)": "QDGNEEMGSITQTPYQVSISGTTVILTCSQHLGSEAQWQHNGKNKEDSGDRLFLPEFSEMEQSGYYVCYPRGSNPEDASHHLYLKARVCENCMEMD", "test": "ELISA"}, "[2]": {"biological_target": "T1, monkey CD3E protein (Examples 4.2 and 7)", "test": "ELISA on monkey CD3E"}, "[3]": {"biological_target": "T2, human CD3 on Jurkat cells (human CD3+ cell line) (human, UniProt P07766 23-207)", "T2 construct": "whole, on cells; Also used for the T cells of human PBMC in the CD69 assays; also called human CD3 positive cells; CD3 on T cells of PBMC", "T2 sequence (P07766 23-207)": "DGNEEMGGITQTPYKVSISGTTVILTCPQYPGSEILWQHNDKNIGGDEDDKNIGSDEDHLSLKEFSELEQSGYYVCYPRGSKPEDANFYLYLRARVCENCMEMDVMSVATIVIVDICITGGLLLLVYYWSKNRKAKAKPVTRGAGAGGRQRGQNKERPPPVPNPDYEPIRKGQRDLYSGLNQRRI", "test": "flow cytometry on Jurkat cells, anti hFC-APC detection"}, "[4]": {"biological_target": "T3, human CD3E protein (Example 4.1) (human, UniProt P07766 23-126)", "T3 construct": "extracellular domain", "T3 sequence (P07766 23-126)": "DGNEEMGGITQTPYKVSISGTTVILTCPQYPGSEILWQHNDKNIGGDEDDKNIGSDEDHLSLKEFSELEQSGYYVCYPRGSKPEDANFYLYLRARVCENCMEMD", "test": "Fortebio (BLI), antibody on protein A sensor, CD3E diluted from 100 nM"}}, "data": [{"binder": "OKT3 antibody (control antibody) (antibody, V domains shown) VH: not shown VL: QIVLTQSPAIMSASPGEKVTMTCSASSSVSYMNWYQQKSGTSPKRWIYDTSKLASGVPAHFRGSGSGTSYSLTISGMEAEDAATYYCQQWSSNPFTFGSGTKLEINR", "values": [{"measurement": "binding result", "setting": "[1]", "result": "no binding"}]}, {"binder": "CD3 full-length antibody CQ54 (antibody, V domains shown, Includes huVH5 and huVL5) VH: not shown VL: QTVVTQEPSLTVSPGGTVTLTCGSSTGPVTGGNYPNWVQQKPGQAPRGLIGGTKFLAPGTPARFSGSLLGGKAALTLSGVQPEDEAEYYCVLWESNRWVFGGGTKLTVLT", "values": [{"measurement": "EC50", "setting": "[2]", "result": 0.375, "unit": "mg/L"}, {"measurement": "EC50", "setting": "[3]", "result": 0.023, "unit": "mg/L"}, {"measurement": "Kd", "setting": "[4]", "result": 0.97, "unit": "nM"}, {"measurement": "koff", "setting": "[4]", "result": 0.000604, "unit": "s⁻¹"}, {"measurement": "kon", "setting": "[4]", "result": 621000, "unit": "M⁻¹ s⁻¹"}]}]}
